Measured values reported in paper PMC314469, “Protein Interaction Networks by Proteome Peptide Scanning” (PLoS Biology, 2004).

T1: Boi1 SH3 (BOI1_YEAST), P38041
T1 chain: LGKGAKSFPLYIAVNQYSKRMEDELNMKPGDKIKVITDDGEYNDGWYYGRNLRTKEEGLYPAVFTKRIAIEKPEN

T2: Yfr024 SH3 (LSB3_YEAST), P43603
T2 chain: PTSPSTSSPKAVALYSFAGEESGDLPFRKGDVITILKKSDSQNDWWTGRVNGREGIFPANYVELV

T3: Yhr016c SH3 (YSC84_YEAST), P32793
T3 chain: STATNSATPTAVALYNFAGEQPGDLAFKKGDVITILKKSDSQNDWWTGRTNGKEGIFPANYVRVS

T4: Rvs167 SH3 (RV167_YEAST), P39743
T4 chain: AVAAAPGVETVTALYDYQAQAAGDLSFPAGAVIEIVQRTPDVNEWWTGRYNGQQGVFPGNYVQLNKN

T5: Boi2 SH3 (BOI2_YEAST), P39969
T5 chain: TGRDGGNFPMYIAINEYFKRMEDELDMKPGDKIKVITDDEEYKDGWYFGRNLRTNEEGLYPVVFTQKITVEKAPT


Key:
Experiment in all cases: SPOT array
[1] = biological target: T1, Boi1 SH3 (BOI1_YEAST), P38041
[2] = biological target: T2, Yfr024 SH3 (LSB3_YEAST), P43603
[3] = biological target: T3, Yhr016c SH3 (YSC84_YEAST), P32793
[4] = biological target: T4, Rvs167 SH3 (RV167_YEAST), P39743
[5] = biological target: T5, Boi2 SH3 (BOI2_YEAST), P39969

Binder | normalised SPOT signal, Boehringer light units (BLU); mean over the file's lines of this peptide [1] | normalised SPOT signal, Boehringer light units (BLU); mean over the file's lines of this peptide [2] | normalised SPOT signal, Boehringer light units (BLU); mean over the file's lines of this peptide [3] | normalised SPOT signal, Boehringer light units (BLU); mean over the file's lines of this peptide [4] | normalised SPOT signal, Boehringer light units (BLU); mean over the file's lines of this peptide [5]
DLAPKWPKKTVSNE [YPL175W 432-445] | 48.2 | 1590 | 110 | 7.2 | 14.6
DDAPATPPRPLKRK [YJL194W 18-31] | 242 | 26500 | 13400 | 4430 | 101
DETPFFPDKIQKSF [YPR060C 81-94] | 37.6 | 164 | 0 | 23.6 | 16.5
DLPPEPPTKLSDSF [YNL284C-B 1135-1148] | 75 | 56.5 | 105 | 30.9 | 30.6
DERPFRPKRTSRSA [YGL165C 149-162] | 632 | 7440 | 992 | 111 | 169
DDTPSIPSKISSKS [YBL034C 1313-1326] | 63.8 | 124 | 188 | 247 | 115
DKLPFSPIKEKKLK [YOR335C 774-787] | 466 | 64.1 | 156 | 118 | 39.8
DIHPSLPVRTRFAP [YOL033W 38-51] | 6780 | 24600 | 5090 | 943 | 30.2
DLPPKFPEKPVHLV [YDR444W 186-199] | 0 | 10300 | 183 | 90.9 | 25.7
DESPIDPSKAPKVP [YGR130C 350-363] | 110 | 0 | 120 | 0 | 11.7
DELPSPPLRMVHID [YER152C 237-250] | 128 | 7450 | 6740 | 124 | 28.3
DLKPAYPGRSAHVV [YJL127C 172-185] | 20.7 | 8830 | 1390 | 31.5 | 77.4
DMVPKHPTKRYVPK [YOR039W 203-216] | 160 | 1770 | 460 | 94.1 | 114
DFTPVEPSKMREYI [YBR202W 629-642] | 64.2 | 15.3 | 179 | 277 | 59.7
DLQPLEPKKAAAST [YBL007C 805-818] | 121 | 37.7 | 0 | 30.3 | 104

The remaining lines, values ahead:

normalised SPOT signal, Boehringer light units (BLU); mean over the file's lines of this peptide [1] | normalised SPOT signal, Boehringer light units (BLU); mean over the file's lines of this peptide [2] | normalised SPOT signal, Boehringer light units (BLU); mean over the file's lines of this peptide [3] | normalised SPOT signal, Boehringer light units (BLU); mean over the file's lines of this peptide [4] | normalised SPOT signal, Boehringer light units (BLU); mean over the file's lines of this peptide [5] | Binder
77.3 | 9640 | 2420 | 62.6 | 112 | DEPPSFPKRWGWLK [YIL067C 85-98]
96.1 | 88.2 | 65.9 | 11 | 41.5 | DLNPDAPPKPQLIP [YPL057C 43-56]
60 | 1140 | 176 | 42.9 | 67.2 | SREPEVPQRLLTLI [YCR095C 250-263]
1690 | 1500 | 193 | 75.7 | 21.9 | DGRPHSPLRARSAT [YFL007W 51-64]
167 | 238 | 175 | 120 | 122 | DHKPENPIRTFKDL [YBL042C 90-103]
35.5 | 87.8 | 89.5 | 55.7 | 73.3 | DKLPEGPVKSLEGA [YNL134C 130-143]
776 | 835 | 211 | 87.3 | 96.7 | DFRPRMPKRQRIPP [YMR125W 18-31]
